According to IntAct's records for PubMed 26972053:

B1: Cytosolic arginine sensor for mTORC1 subunit 1 (Homo sapiens), Q8WTX7 (parent)
chain: MELHILEHRVRVLSVARPGLWLYTHPLIKLLFLPRRSRCKFFSLTETPEDYTLMVDEEGFKELPPSEFLQVAEATWLVLNVSSHSGAAVQAAGVTKIARSVIAPLAEHHVSVLMLSTYQTDFILVREQDLSVVIHTLAQEFDIYREVGGEPVPVTRDDSSNGFPRTQHGPSPTVHPIQSPQNRFCVLTLDPETLPAIATTLIDVLFYSHSTPKEAASSSPEPSSITFFAFSLIEGYISIVMDAETQKKFPSDLLLTSSSGELWRMVRIGGQPLGFDECGIVAQIAGPLAAADISAYYISTFNFDHALVPEDGIGSVIEVLQRRQEGLAS
partner: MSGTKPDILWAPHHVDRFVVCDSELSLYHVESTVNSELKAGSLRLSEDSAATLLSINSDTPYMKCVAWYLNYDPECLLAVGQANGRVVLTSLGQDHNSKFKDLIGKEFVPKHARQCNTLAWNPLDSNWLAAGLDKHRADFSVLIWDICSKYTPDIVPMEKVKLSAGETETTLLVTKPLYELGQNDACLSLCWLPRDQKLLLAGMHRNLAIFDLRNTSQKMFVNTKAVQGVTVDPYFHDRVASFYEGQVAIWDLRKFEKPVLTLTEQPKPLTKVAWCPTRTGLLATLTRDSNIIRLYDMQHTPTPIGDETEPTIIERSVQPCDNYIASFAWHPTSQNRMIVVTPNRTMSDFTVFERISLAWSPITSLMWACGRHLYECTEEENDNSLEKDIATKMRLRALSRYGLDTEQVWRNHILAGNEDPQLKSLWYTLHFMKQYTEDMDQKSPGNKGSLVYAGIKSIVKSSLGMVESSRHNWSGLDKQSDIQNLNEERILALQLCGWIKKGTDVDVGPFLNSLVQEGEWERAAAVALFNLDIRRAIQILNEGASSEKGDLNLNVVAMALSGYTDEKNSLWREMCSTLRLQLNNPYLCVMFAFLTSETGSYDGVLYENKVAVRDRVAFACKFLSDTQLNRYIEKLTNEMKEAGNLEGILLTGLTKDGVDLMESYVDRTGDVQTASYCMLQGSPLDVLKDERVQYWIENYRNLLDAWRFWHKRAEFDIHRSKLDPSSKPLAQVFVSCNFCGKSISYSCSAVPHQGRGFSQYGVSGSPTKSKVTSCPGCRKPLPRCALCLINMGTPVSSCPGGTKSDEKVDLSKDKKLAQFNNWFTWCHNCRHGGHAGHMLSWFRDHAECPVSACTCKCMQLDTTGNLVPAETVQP

Variants of: B1
Conditions: with mios_human MIOS

effect of a mutation on the interaction | Variant
disrupting interaction strength | I280A
